In series [1] the target is T1, HIV-1 reverse transcriptase (p66/p51) (Human immunodeficiency virus 1, UniProt P04585;P04585 P04585:588-1147,P04585:588-1027). The experiment in a line: EMSA; complex formed; competed by 100-fold excess of itself; 6 mM MgCl2, 60 mM NaCl, 40 mM Tris-HCl pH 8.3, 10 mM DTT, 37 C. The following applies: Genetics Institute (Cambridge, MA) for polymerase assays; label: 32P (CTP, internal); tRNA cloverleaf.

Series [2] concerns the target T1, HIV-1 reverse transcriptase (p66/p51). The experiment in a line: EMSA; affinity similar to tRNALys3; 100-fold excess competes effectively; 6 mM MgCl2, 60 mM NaCl, pH 8.3, 37 C. The following applies: Genetics Institute (Cambridge, MA) for polymerase assays; tRNA cloverleaf, acceptor stem restored. For orientation: Mobility shift assays separate free from complexed probe on a gel.

Series [3] addresses MoMuLV reverse transcriptase (Moloney murine leukemia virus, UniProt P03355 P03355:660-1330). In words: EMSA; did not bind MoMuLV RT.

B1: tRNALys3 (ssRNA)
RNA: GCCCGGAUAGCUCAGUCGGUAGAGCAUCAGACUUUUAAUCUGAGGGUCCAGGGUUCAAGUCCCUGUUCGGGCGCCA
On to B1, for which the binding result in series [1] is “binds”.

B2: tRNAtarD (ssRNA)
RNA: UAGACCAUAGCUCAGUCGGUAGAGCAUCAGACUUUUAAUCUGAGGGUCCAGGGUUCAAGUCCCUGUGGUCUAACCA
Turning to B2, the binding result in series [2] was “binds”; in series [3], “no binding”.

(Values after US6355790, “Inhibition of HIV replication using a mutated transfer RNA primer” (University of Rochester).)
